Test results taken from paper PMC6400558 (2019).

B1: MBP-tagged Hook2 Hook+CC1 (N427) WT [human] / GST-tagged LIC1 (389–523 aa) [not stated] (parent complex)
chain 1: MSVDKAELCGSLLTWLQTFHVPSPCASPQDLSSGLAVAYVLNQIDPSWFNEAWLQGISEDPGPNWKLKVSNLKMVLRSLVEYSQDVLAHPVSEEHLPDVSLIGEFSDPAELGKLLQLVLGCAISCEKKQDHIQRIMTLEESVQHVVMEAIQELMTKDTPDSLSPETYGNFDSQSRRYYFLSEEAEEGDELQQRCLDLERQLMLLSEEKQSLAQENAGLRERMGRPEGEGTPGLTAKKLLLLQSQLEQLQEENFRLESGREDERLRCAELEREVAELQHRNQALTSLAQEAQALKDEMDELRQSSERAGQLEATLTSCRRRLGELRELRRQVRQLEERNAGHAERTRQLEDELRRAGSLRAQLEAQRRQVQELQGQRQEEAMKAEKWLFECRNLEEKYESVTKEKERLLAERDSLREANEELRCAQLQ
chain 2: TAAGRPVDASPRVPGGSPRTPNRSVSSNVASVSPIPAGSKKIDPNMKAGATSEGVLANFFNSLLSKKTGSPGGPGVSGGSPAGGAGGGSSGLPPSTKKSGQKPVLDVHAELDRITRKPVTVSPTTPTSPTEGEAS

Variants of: B1
Test: GST pull-down, anti-MBP immunoblot, band intensity quantified; n = 3; parent: 0.95; read off a plot

| Variant | response [Pulldown/Input] |
| --- | --- |
| chain 1 MSVDKAELCGSLLTWLQTFHVPSPCASPQDLSSGLAVAYVLNQIDPSWFNEAWLQGISEDPGPNWKLKVSNLKMVLRSLVEYSQDVLAHPVSEEHLPDVSLIGEFSDPAELGKLLQLVLGCAISCEKKQDHIQRIMTLEESVQHVVMEAAQELMTKDTPDSLSPETYGNFDSQSRRYYFLSEEAEEGDELQQRCLDLERQLMLLSEEKQSLAQENAGLRERMGRPEGEGTPGLTAKKLLLLQSQLEQLQEENFRLESGREDERLRCAELEREVAELQHRNQALTSLAQEAQALKDEMDELRQSSERAGQLEATLTSCRRRLGELRELRRQVRQLEERNAGHAERTRQLEDELRRAGSLRAQLEAQRRQVQELQGQRQEEAMKAEKWLFECRNLEEKYESVTKEKERLLAERDSLREANEELRCAQLQ [chain 1 I150A] | ~0.18 |
| chain 1 MSVDKAELCGSLLTWLQTFHVPSPCASPQDLSSGLAVAYVLNQIDPSWFNEAWLQGISEDPGPNWKLKVSNLKMVLRSLVEYSQDVLAHPVSEEHLPDVSLIGEFSDPAELGKLLQLVLGCAISCEKKQDHIQRIMTLEESVAHVVMEAIQELMTKDTPDSLSPETYGNFDSQSRRYYFLSEEAEEGDELQQRCLDLERQLMLLSEEKQSLAQENAGLRERMGRPEGEGTPGLTAKKLLLLQSQLEQLQEENFRLESGREDERLRCAELEREVAELQHRNQALTSLAQEAQALKDEMDELRQSSERAGQLEATLTSCRRRLGELRELRRQVRQLEERNAGHAERTRQLEDELRRAGSLRAQLEAQRRQVQELQGQRQEEAMKAEKWLFECRNLEEKYESVTKEKERLLAERDSLREANEELRCAQLQ [chain 1 Q143A] | ~0.22 |
